The results in this text go back to patent publication US6627405 (CURAGEN, dated 2003).

What all share (assay): yeast two hybrid mating, growth on selective medium
The target of assay [1] is T1, MDM2 (GenBank Acc. No. M92424) (UniProt Q00987 1-491, limits assumed).
T1 construct: Bait hybrid expressed in yeast strain N106r; also called MDM2 bait
As to the method: (§1) The two mating strains, alpha and a, were then, diluted in YAPD media (Sherman et al., eds., 1991, *Getting Started with Yeast*, Vol. 194, Academic Press, New York), filtered onto nitrocellulose membranes, and incubated at 30 degrees Celsius for 6–8 hours. The cells were then transferred to media selective for the desired diploids, i.e., yeast harboring reporter genes for beta-galactosidase, uracil auxotrophy, and histidine auxotrophy, and expression of the vectors encoding the bait and prey. The mating products were plated on SC (synthetic complete) (Kaiser et al. eds., 1994, *Methods in Genetics*, 1994 ed., Cold Spring Harbor Press, New York, p. 209) media lacking adenine and lysine (to select for successful mating), leucine and tryptophan (to select for expression of genes encoded by both the bait and prey plasmids), and uracil and histidine (to select for protein interactions). This medium is herein referred to as SCS medium, for SC Selective medium.
(§2) No. X03541, Martin-Zanca, et al., 1986, Nature 319: 743–748), EST M62042 (Adams et al., 1991, Science 252: 1651–1656), Ral GDS (GenBank Acc. No. U14417, Hofer, et al., 1994, Proc. Natl. Acad. Sci. U.S.A. 91: 11089–11093) or E2F (GenBank Acc. […] No. M92424, Oliner et al., 1994, direct submission), CAS (GenBank Acc. No. U33286, Brinkmann et al., 1995, Proc. Natl. Acad. Sci. U.S.A. 92: 10427–10431), and PA9 (GenBank Acc. No. S82076, Yang et al., 1996, Carcinogenesis 17:563–567) Specifically, lack of growth for p62 and β-tubulin interactions with MDM2 is depicted in FIG. 7.

Assay [2] addresses T2, CAS (GenBank Acc. No. U33286) (UniProt P55060 1-971, limits assumed).
T2 construct: Bait hybrid expressed in yeast strain N106r
T2 sequence (looked up): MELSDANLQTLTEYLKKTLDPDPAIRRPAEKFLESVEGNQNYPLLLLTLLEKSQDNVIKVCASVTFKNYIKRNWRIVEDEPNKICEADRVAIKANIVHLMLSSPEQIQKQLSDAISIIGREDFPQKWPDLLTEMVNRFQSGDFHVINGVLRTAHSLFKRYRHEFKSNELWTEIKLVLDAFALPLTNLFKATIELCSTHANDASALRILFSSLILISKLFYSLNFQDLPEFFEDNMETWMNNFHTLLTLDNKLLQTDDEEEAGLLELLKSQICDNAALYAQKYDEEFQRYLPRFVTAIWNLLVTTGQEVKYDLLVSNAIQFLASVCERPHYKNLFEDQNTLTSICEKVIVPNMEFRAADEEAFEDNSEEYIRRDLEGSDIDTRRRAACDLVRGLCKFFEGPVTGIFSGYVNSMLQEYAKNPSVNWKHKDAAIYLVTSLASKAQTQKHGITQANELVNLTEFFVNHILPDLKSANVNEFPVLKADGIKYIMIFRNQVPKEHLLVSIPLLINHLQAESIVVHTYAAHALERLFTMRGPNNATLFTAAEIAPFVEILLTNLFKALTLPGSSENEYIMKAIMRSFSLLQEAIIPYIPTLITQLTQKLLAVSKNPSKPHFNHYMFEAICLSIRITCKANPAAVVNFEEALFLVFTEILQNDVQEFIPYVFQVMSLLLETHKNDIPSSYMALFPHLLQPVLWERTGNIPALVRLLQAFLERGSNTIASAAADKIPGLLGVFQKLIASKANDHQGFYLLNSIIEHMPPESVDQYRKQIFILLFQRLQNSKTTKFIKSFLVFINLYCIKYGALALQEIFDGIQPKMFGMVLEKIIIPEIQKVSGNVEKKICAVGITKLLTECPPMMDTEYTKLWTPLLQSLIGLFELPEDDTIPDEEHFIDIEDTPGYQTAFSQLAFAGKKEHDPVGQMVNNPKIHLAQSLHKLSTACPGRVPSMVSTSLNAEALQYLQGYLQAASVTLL
As to the method:
as §1, §2

In assay [3] the target is T3, Ral GDS (GenBank Acc. No. U14417) (UniProt Q12967 1-914, limits assumed).
T3 construct: Expressed as a Gal4 hybrid in yeast
T3 sequence (looked up): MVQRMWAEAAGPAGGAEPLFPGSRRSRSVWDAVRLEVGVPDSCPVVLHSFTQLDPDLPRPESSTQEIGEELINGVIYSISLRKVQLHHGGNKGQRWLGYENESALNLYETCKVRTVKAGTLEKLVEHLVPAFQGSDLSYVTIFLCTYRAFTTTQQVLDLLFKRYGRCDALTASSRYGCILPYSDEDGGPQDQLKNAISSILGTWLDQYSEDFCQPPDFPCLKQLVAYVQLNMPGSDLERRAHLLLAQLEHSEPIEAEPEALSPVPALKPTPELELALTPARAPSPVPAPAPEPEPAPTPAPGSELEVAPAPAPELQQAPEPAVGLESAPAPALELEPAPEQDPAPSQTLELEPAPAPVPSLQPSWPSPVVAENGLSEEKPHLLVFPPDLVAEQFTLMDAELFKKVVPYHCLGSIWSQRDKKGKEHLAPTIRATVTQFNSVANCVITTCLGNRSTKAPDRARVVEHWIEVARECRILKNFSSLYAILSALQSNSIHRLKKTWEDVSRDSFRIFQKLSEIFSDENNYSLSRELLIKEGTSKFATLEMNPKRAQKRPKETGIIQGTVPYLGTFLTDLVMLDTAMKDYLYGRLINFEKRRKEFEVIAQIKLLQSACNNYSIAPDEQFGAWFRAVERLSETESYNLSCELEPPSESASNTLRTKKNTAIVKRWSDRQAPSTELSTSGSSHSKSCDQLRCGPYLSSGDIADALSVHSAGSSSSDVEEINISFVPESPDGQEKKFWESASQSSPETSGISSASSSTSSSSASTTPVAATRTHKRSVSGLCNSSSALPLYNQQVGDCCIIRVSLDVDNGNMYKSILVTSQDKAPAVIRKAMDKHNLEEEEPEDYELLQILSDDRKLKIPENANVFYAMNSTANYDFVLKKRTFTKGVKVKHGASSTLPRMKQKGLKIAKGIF
As to the method: as §1, §2

In assay [4] the target is T4, pRb (GenBank Acc. No. M28419) (UniProt P06400 1-928, limits assumed).
T4 construct: Expressed as a Gal4 hybrid in yeast
T4 sequence (looked up): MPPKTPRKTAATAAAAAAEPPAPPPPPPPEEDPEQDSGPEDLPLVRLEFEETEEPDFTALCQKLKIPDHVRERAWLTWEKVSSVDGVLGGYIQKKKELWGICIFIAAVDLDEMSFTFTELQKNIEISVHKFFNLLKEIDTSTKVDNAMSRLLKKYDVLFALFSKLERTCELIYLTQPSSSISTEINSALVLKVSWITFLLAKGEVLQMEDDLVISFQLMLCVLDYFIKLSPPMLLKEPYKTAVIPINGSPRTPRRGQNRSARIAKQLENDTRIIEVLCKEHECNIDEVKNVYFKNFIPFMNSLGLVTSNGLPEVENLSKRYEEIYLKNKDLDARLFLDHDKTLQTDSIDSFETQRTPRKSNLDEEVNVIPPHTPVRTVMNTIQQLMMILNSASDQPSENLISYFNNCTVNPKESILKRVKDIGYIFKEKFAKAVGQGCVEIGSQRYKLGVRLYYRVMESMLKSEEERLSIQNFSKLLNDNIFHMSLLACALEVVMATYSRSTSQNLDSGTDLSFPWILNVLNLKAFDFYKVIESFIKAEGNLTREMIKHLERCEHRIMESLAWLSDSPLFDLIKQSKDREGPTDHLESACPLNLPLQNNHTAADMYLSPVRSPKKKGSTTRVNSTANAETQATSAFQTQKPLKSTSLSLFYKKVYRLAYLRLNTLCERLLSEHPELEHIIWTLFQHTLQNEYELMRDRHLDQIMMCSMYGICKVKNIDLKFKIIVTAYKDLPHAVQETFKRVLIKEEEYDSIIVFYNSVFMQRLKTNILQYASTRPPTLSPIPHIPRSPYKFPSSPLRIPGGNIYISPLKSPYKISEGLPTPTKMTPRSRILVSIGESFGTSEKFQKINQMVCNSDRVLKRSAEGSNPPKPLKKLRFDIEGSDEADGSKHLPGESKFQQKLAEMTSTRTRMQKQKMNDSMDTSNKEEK
As to the method:
as §1, §2

T1 sequence (Q00987 whole entry, one chain of several): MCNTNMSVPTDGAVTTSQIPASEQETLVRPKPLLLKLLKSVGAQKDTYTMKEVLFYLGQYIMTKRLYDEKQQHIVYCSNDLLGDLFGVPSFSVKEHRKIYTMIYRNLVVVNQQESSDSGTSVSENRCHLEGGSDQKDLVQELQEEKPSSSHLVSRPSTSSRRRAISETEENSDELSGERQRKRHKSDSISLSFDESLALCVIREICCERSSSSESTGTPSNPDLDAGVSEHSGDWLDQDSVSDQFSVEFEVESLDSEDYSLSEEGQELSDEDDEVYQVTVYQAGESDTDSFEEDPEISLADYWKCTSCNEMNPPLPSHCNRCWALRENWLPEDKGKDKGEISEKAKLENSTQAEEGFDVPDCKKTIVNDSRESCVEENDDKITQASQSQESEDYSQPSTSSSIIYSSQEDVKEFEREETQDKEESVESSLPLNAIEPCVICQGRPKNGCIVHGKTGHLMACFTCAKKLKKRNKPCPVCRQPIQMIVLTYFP

B1: p62 prey sequence, amino acids 275-443 (other, yeast)
chain: NGVPEPSRGRGVPVRGRGAAPPPPPVPRGRGVGPPRGALVRGTPVRGAITRGATVTRGVPPPPTVRGAPAPRARTAGIQRIPLPPPPAPETYEEYGYDDTYAEQSYEGYEGYYSQSQGDSEYYDYGHGEVQDSYEAYGQDDWNGTRPSLKAPPARPVKGAYREHPYGRY
As for B1, the binding result in assay [1] and in assay [2] was “no binding” in each case.

B2: 53BP2 bait fragment, amino acids 704-1005 (C-terminus) of human 53BP2 (other)
chain: SPGLDYEPEGVPDNSPNLQNNPEEPNPEAPHVLDVYLEEYPPYPPPPYPSGEPEGPGEDSVSMRPPEITGQVSLPPGKRTNLRKTGSERIAHGMRVKFNPLALLLDSSLEGEFDLVQRIIYEVDDPSLPNDEGITALHNAVCAGHTEIVKFLVQFGVNVNAADSDGWTPLHCAASCNNVQVCKFLVESGAAVFAMTYSDMQTAADKCEEMEEGYTQCSQFLYGVQEKMGIMNKGVIYALWDYEPQNDDELPMKEGDCMTIIHREDEDEIEWWWARLNDKEGYVPRNLLGLYPRIKPRQRSLA
notes: also called BBP; not shown: residues not
On to B2, for which the binding result in assay [3] and in assay [4] was “no binding” in each case.
